± gives the standard deviation of the averaged measurements.
Columns and labels:
Saccharomyces cerevisiae [1] = assay: protein stability index of tFT-peptide fusion (C-terminal peptide) (PSI (0-1 scale)); higher = more stable (slower turnover); details: genetic background: wild type; temperature: 30 C
Saccharomyces cerevisiae [2] = assay: as above
Method: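 MPS profiling in S. cerevisiae of the tFT-X12 degron library: putative degron peptides plus stable controls, 12 aa, fused to the C-terminus of a sfGFP-mCherry timer. Cells are FACS-sorted into 8 mCherry/sfGFP bins and deep-sequenced. PSI runs from 0 (unstable) to 1 (stable). Backgrounds are wild type, das1Δ and doa10Δ at 30 °C, and wild type, das1Δ, cdc34-1 and cdc53-1 at 37 °C; 2-3 technical replicates each.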

[3] = genetic background: cdc34-1, temperature: 37 C
[4] = genetic background: cdc53-1, temperature: 37 C
[5] = genetic background: das1 deletion, temperature: 30 C
[6] = genetic background: das1 deletion, temperature: 37 C
[7] = genetic background: doa10 deletion, temperature: 30 C
[8] = genetic background: wild type, temperature: 30 C
[9] = genetic background: wild type, temperature: 37 C
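Note: PSI is a weighted mean of sequencing reads over stability bins, variants kept only with over 10 reads, mCherry proximal and sfGFP distal, peptide attached via GGGS linker.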

Sequence	protein stability index (Saccharomyces cerevisiae [1])	protein stability index (Saccharomyces cerevisiae [2]; [3])	protein stability index (Saccharomyces cerevisiae [2]; [4])	protein stability index (Saccharomyces cerevisiae [2]; [5])	protein stability index (Saccharomyces cerevisiae [2]; [6])	protein stability index (Saccharomyces cerevisiae [2]; [7])	protein stability index (Saccharomyces cerevisiae [2]; [8])	protein stability index (Saccharomyces cerevisiae [2]; [9])
LCRCPVGVFVLL	0.362 ± 0.012	0.516 ± 0.036	0.549 ± 0.031	0.39 ± 0.038	0.5395 ± 0.0021	0.356 ± 0.033	0.303 ± 0.035	0.469 ± 0.017
VVWCLLARVLLV	0.218 ± 0.026	0.332 ± 0.017	0.4 ± 0.02	0.306 ± 0.036	0.46657 ± 0.00033	0.1578 ± 0.00094	0.167 ± 0.019	0.243 ± 0.011
FFSRIIAILVLM	0.23 ± 0.031	0.37 ± 0.071	0.453 ± 0.014	0.337 ± 0.024	0.515 ± 0.016	0.135 ± 0.011	0.144 ± 0.0086	0.192 ± 0.035
VPIIVVVYVFVT	0.203 ± 0.085	0.13 ± 0.022	0.247 ± 0.11	0.157 ± 0.03	0.306 ± 0.024	0.105 ± 0.025	0.134 ± 0.038	0.258 ± 0.0081
RKGQNKKRNKIY	0.399 ± 0.02	0.7504 ± 0.0028	0.767 ± 0.019	0.659 ± 0.008	0.7331 ± 0.0033	0.203 ± 0.028	0.295 ± 0.035	0.575 ± 0.044
FVLLTFLFFWQF	0.328 ± 0.03	0.349 ± 0.014	0.441 ± 0.028	0.321 ± 0.031	0.476 ± 0.019	0.287 ± 0.007	0.299 ± 0.018	0.441 ± 0.016
LFFVFCLFFIYF	0.247 ± 0.004	0.167 ± 0.031	0.102 ± 0.0085	0.235 ± 0.024	0.301 ± 0.0074	0.322 ± 0.0061	0.252 ± 0.017	0.264 ± 0.011
MLECIIHLTITR	0.483 ± 0.025	0.417 ± 0.072	0.577 ± 0.095	0.431 ± 0.038	0.507 ± 0.011	0.4306 ± 0.0039	0.444 ± 0.038	0.491 ± 0.019
VVRYGGVIAFRG	0.596 ± 0.24	0.841 ± 0.065	0.641 ± 0.085	0.547 ± 0.017	0.725 ± 0.029	0.579 ± 0.072	0.691 ± 0.13	0.684 ± 0.13
ALSGLARFIVCH	0.428 ± 0.026	0.308 ± 0.0074	0.358 ± 0.019	0.272 ± 0.043	0.4268 ± 0.0034	0.2054 ± 0.0015	0.243 ± 0.031	0.392 ± 0.016
FRLCQRPVFLLS	0.35 ± 0.0061	0.586 ± 0.054	0.669 ± 0.014	0.542 ± 0.018	0.676 ± 0.0091	0.182 ± 0.0059	0.22 ± 0.017	0.408 ± 0.02
IRSRGLLIRWLS	0.182 ± 0.015	0.52 ± 0.025	0.679 ± 0.023	0.616 ± 0.026	0.721 ± 0.011	0.0894 ± 0.0094	0.0994 ± 0.033	0.148 ± 0.015
GTVRSLLKWRCS	0.3259 ± 0.00055	0.654 ± 0.051	0.732 ± 0.0075	0.651 ± 0.027	0.7431 ± 0.0073	0.148 ± 0.016	0.192 ± 0.02	0.384 ± 0.011
AFLWSLFVFFRF	0.393 ± 0.085	0.254 ± 0.056	0.183 ± 0.0084	0.31 ± 0.035	0.355 ± 0.0011	0.421 ± 0.017	0.269 ± 0.042	0.363 ± 0.018
RWTKMNNLIIEF	0.7466 ± 0.0064	0.693 ± 0.0083	0.744 ± 0.0087	0.667 ± 0.013	0.742 ± 0.042	0.678 ± 0.012	0.648 ± 0.025	0.699 ± 0.026
PFVATRVSCFLT	0.414 ± 0.015	0.542 ± 0.013	0.704 ± 0.024	0.626 ± 0.087	0.685 ± 0.0089	0.339 ± 0.004	0.39 ± 0.05	0.4393 ± 0.00057
FLFCACIRVFSY	0.193 ± 0.0046	0.0501 ± 0.0013	0.17 ± 0.019	0.144 ± 0.025	0.228 ± 0.0087	0.125 ± 0.0033	0.133 ± 0.014	0.195 ± 0.02
LRPTFLLLFRPL	0.493 ± 0.096	0.292 ± 0.022	0.283 ± 0.037	0.377 ± 0.032	0.474 ± 0.011	0.618 ± 0.004	0.407 ± 0.017	0.4302 ± 0.0023
FFFLPLFLVLSL	0.363 ± 0.0047	0.239 ± 0.01	0.158 ± 0.034	0.29 ± 0.025	0.378 ± 0.0094	0.486 ± 0.03	0.29 ± 0.03	0.329 ± 0.0071
SVVYCRMRVHFV	0.285 ± 0.0052	0.403 ± 0.024	0.487 ± 0.046	0.373 ± 0.015	0.432 ± 0.014	0.263 ± 0.01	0.285 ± 0.02	0.3786 ± 0.0025

Sequence	protein stability index (Saccharomyces cerevisiae [1])	protein stability index (Saccharomyces cerevisiae [2]; [3])	protein stability index (Saccharomyces cerevisiae [2]; [4])	protein stability index (Saccharomyces cerevisiae [2]; [5])	protein stability index (Saccharomyces cerevisiae [2]; [6])	protein stability index (Saccharomyces cerevisiae [2]; [7])	protein stability index (Saccharomyces cerevisiae [2]; [8])	protein stability index (Saccharomyces cerevisiae [2]; [9])
CVCPFCVWVSCL	0.433 ± 0.081	0.598 ± 0.066	0.744 ± 0.054	0.51 ± 0.027	0.752 ± 0.0091	0.242 ± 0.0047	0.263 ± 0.032	0.4205 ± 0.0029
RLFSPPVLATPS	0.0111 ± 0.016	0.654 ± 0.012	0.679 ± 0.025	0.525 ± 0.031	0.696 ± 0.021	0.51908 ± 0.00034	0.534 ± 0.019	0.6477 ± 0.0014
LFFRLLCAFLFL	0.529 ± 0.046	0.532 ± 0.041	0.452 ± 0.012	0.499 ± 0.047	0.584 ± 0.017	0.578 ± 0.04	0.501 ± 0.012	0.5353 ± 0.0031
CFLSWSLRFFIL	0.206 ± 0.011	0.387 ± 0.094	0.507 ± 0.022	0.482 ± 0.031	0.554 ± 0.034	0.132 ± 0.0019	0.118 ± 0.0054	0.139 ± 0.013
DVPLFLPLPVSV	0.392 ± 0.0097	0.357 ± 0.035	0.357 ± 0.01	0.278 ± 0.032	0.452 ± 0.015	0.243 ± 0.0078	0.297 ± 0.021	0.3903 ± 0.0012
IFAVLVSGSFFF	0.4288 ± 0.00067	0.425 ± 0.018	0.541 ± 0.014	0.324 ± 0.051	0.545 ± 0.017	0.318 ± 0.0053	0.336 ± 0.041	0.509 ± 0.017
IRACGCSFLWVC	0.192 ± 0.035	0.465 ± 0.048	0.63 ± 0.01	0.5 ± 0.026	0.678 ± 0.0079	0.1113 ± 0.00066	0.106 ± 0.0056	0.118 ± 0.015
CVSFFRCLFLIV	0.168 ± 0.0043	0.217 ± 0.0061	0.231 ± 0.019	0.302 ± 0.028	0.3805 ± 0.00051	0.193 ± 0.0083	0.144 ± 0.013	0.194 ± 0.017
LSACYSRYVFVS	0.135 ± 0.0089	0.398 ± 0.039	0.553 ± 0.038	0.472 ± 0.016	0.60517 ± 0.00057	0.0584 ± 0.017	0.093 ± 0.023	0.115 ± 0.012
RFICMMYLVYLC	0.1405 ± 0.0006	0.142 ± 0.022	0.188 ± 0.023	0.192 ± 0.03	0.3 ± 0.016	0.0601 ± 0.035	0.0619 ± 0.018	0.073 ± 0.019
PPHRTLLQLRTN	0.343 ± 0.18	0.599 ± 0.072	0.728 ± 0.035	0.661 ± 0.022	0.727 ± 0.0085	0.169 ± 0.021	0.164 ± 0.02	0.313 ± 0.015
FMRKLVVLVVLG	0.347 ± 0.089	0.257 ± 0.029	0.307 ± 0.013	0.222 ± 0.031	0.4342 ± 0.0023	0.1923 ± 0.0019	0.206 ± 0.028	0.417 ± 0.046
GVCWCVLFVVGC	0.359 ± 0.013	0.312 ± 0.012	0.417 ± 0.059	0.271 ± 0.027	0.484 ± 0.006	0.226 ± 0.012	0.259 ± 0.02	0.428 ± 0.052
GPRRARLPNFLA	0.085 ± 0.012	0.445 ± 0.013	0.684 ± 0.031	0.657 ± 0.018	0.715 ± 0.018	0.0795 ± 0.025	0.0947 ± 0.025	0.123 ± 0.022
FGPVLLVSFLFS	0.35 ± 0.014	0.273 ± 0.024	0.386 ± 0.033	0.242 ± 0.031	0.422 ± 0.027	0.19 ± 0.016	0.235 ± 0.054	0.4008 ± 0.0017
LFFFSFSFLFFL	0.278 ± 0.035	0.291 ± 0.07	0.29 ± 0.0037	0.302 ± 0.015	0.411 ± 0.00085	0.317 ± 0.024	0.245 ± 0.014	0.3202 ± 0.0027
REGDLLKFKMRP	0.725 ± 0.067	0.6854 ± 0.0054	0.727 ± 0.008	0.637 ± 0.024	0.716 ± 0.018	0.637 ± 0.037	0.639 ± 0.015	0.703 ± 0.027
FGVRRSFVVFVV	0.191 ± 0.023	0.3827 ± 0.00079	0.456 ± 0.011	0.337 ± 0.033	0.556 ± 0.0058	0.0834 ± 0.011	0.0934 ± 0.015	0.107 ± 0.014
CWYVCSFWPYVV	0.174 ± 0.013	0.366 ± 0.061	0.6476 ± 0.0021	0.548 ± 0.022	0.69 ± 0.0077	0.0885 ± 0.0085	0.089 ± 0.027	0.0762 ± 0.016

From the supplement of paper PMC10724198
